Experimental findings from article PMC5030251, “Metal-Induced Stabilization and Activation of Plasmid Replication Initiator RepB” (Frontiers in Molecular Biosciences, 2016) are described below.

This data set concerns the molecule itself. As to the kind of experiment: AUC; sedimentation equilibrium; RepB6 samples heated to temperatures from 25°C up to 45°C (end of the first thermal transition).

B1: RepB, replication initiator protein of the streptococcal plasmid pMV158 (enzyme, UniProt P13921 1-210, looked up)
chain: MAKEKARYFTFLLYPESIPSDWELKLETLGVPMAISPLHDKDKSSIKGQKYKKAHYHVLYIAKNPVTADSVRKKIKLLLGEKSLAMVQVVLNVENMYLYLTHESKDAIAKKKHVYDKADIKLINNFDIDRYVTLDVEEKTELFNVVVSLIRAYTLQNIFDLYDFIDENGETYGLTINLVNEVIAGKTGFMKLLFDGAYQRSKRGTKNEER
notes: RepB, replication initiator (Rep) protein encoded by plasmid pMV158; 210 amino acid polypeptide purified as a hexamer; In assay a2 the protein had been heated beyond its first, irreversible thermal transition (OBD denatured); also called RepB6; full-length hexameric RepB; source: purified as described previously (Ruiz-Masó et al., 2004; Boer et al., 2009)
Turning to B1, the “stoichiometry N” value was around 6.

The term stoichiometry N denotes a count of units in the complex or per binding partner.
